Here are results for six molecules from article PMC3094755, “The DNA-Binding Domain of Human PARP-1 Interacts with DNA Single-Strand Breaks as a Monomer through Its Second Zinc Finger”.

The term Kd denotes a measure of binding affinity in units of concentration.

Data set [1] deals with T1, PARP-1 F1+F2 (24-kDa DBD) (Homo sapiens, UniProt P09874 1-214). In words: fluorescence anisotropy; 50; 50 mM Tris-HCl pH 7.0, 150 uM ZnSO4, 4 mM DTT, 25 C; NaCl 0-200 mM (T2, as in cof; 10 nM DNA) or 25 mM (T3 mutants; 25 nM DNA). The note with it: protein: recombinant, label: fluorescein-dT at T8 and T30, two tetraloops. For orientation: Polarisation of emitted light reports the rotation of a fluorescent probe.

Data set [2] has as its target T1, PARP-1 F1+F2 (24-kDa DBD). In words: fluorescence anisotropy; 150; 50 mM Tris-HCl pH 7.0, 150 uM ZnSO4, 4 mM DTT, 25 C; NaCl 0-200 mM (T2, as in cof; 10 nM DNA) or 25 mM (T3 mutants; 25 nM DNA). The following applies: protein: recombinant; label: fluorescein-dT at T8 and T30; single-chain dumbbell with central nick, two tetraloops.
For data set [3], the target named is T1, PARP-1 F1+F2 (24-kDa DBD). The data set is described as follows: fluorescence anisotropy; 200; 50 mM Tris-HCl pH 7.0, 150 uM ZnSO4, 4 mM DTT, 25 C; NaCl 0-200 mM (T2, as in cof; 10 nM DNA) or 25 mM (T3 mutants; 25 nM DNA). The note with it: protein: recombinant; label: fluorescein-dT at T8 and T30; single-chain dumbbell with central nick, two tetraloops.
In data set [4] the target is T1, PARP-1 F1+F2 (24-kDa DBD). The data set is described as follows: fluorescence anisotropy; 75; 50 mM Tris-HCl pH 7.0, 150 uM ZnSO4, 4 mM DTT, 25 C; NaCl 0-200 mM (T2, as in cof; 10 nM DNA) or 25 mM (T3 mutants; 25 nM DNA). The following applies: protein: recombinant, label: fluorescein-dT at T8 and T30, two tetraloops.
The target in data set [5] is T1, PARP-1 F1+F2 (24-kDa DBD). In words: fluorescence anisotropy; 0; 50 mM Tris-HCl pH 7.0, 150 uM ZnSO4, 4 mM DTT, 25 C; NaCl 0-200 mM (T2, as in cof; 10 nM DNA) or 25 mM (T3 mutants; 25 nM DNA). The note with it: protein: recombinant, label: fluorescein-dT at T8 and T30, two tetraloops.
The target of data set [6] is T1, PARP-1 F1+F2 (24-kDa DBD). In words: fluorescence anisotropy; 25; 50 mM Tris-HCl pH 7.0, 150 uM ZnSO4, 4 mM DTT, 25 C; NaCl 0-200 mM (T2, as in cof; 10 nM DNA) or 25 mM (T3 mutants; 25 nM DNA). The note with it: protein: recombinant, label: fluorescein-dT at T8 and T30, two tetraloops.
Data set [7] addresses T1, PARP-1 F1+F2 (24-kDa DBD). In words: fluorescence anisotropy; 100; 50 mM Tris-HCl pH 7.0, 150 uM ZnSO4, 4 mM DTT, 25 C; NaCl 0-200 mM (T2, as in cof; 10 nM DNA) or 25 mM (T3 mutants; 25 nM DNA). The following applies: protein: recombinant, label: fluorescein-dT at T8 and T30, two tetraloops.
The target in data set [8] is PARP-1 F2 K131I/G135D (Homo sapiens, UniProt P09874 103-214, K131I;G135D). The data set is described as follows: EMSA; 400 nM DNA; FA: 50 mM Tris-HCl pH 7, 150 uM ZnSO4, 4 mM DTT, 0-200 mM NaCl, 25 C, 10 nM DNA (mutants 25 nM DNA, 25 mM NaCl); EMSA: 50 mM Tris-HCl pH 7.4, 150 uM ZnSO4, 4 mM DTT, 10% glycerol, RT incubation, gel at 4 C; NMR complexes: 50 mM Tris pH 7.0, 150 uM ZnSO4, 4 mM DTT, 37 C. The note with it: protein: recombinant; single-chain dumbbell with 1-nt gap, two tetraloops. For orientation: A gel shift assay detects complexes by their altered migration in electrophoresis.

The target of data set [9] is PARP-1 F2 K141I/K142I (Homo sapiens, UniProt P09874 103-214, K141I;K142I). The description is as above. The following applies: protein: recombinant; single-chain dumbbell with 1-nt gap, two tetraloops.
Data set [10] has as its target T1, PARP-1 F1+F2 (24-kDa DBD). The description is as above. The following applies: protein: recombinant; single-chain dumbbell with 1-nt gap, two tetraloops.
The target of data set [11] is PARP-1 F2 R138I (Homo sapiens, UniProt P09874 103-214, R138I). Described as above. The note with it: protein: recombinant; single-chain dumbbell with 1-nt gap, two tetraloops.
In data set [12] the target is PARP-1 F2 (Homo sapiens, UniProt P09874 103-214). The data set is described as follows: EMSA; 400 nM DNA; slightly less than F1+F2; FA: 50 mM Tris-HCl pH 7, 150 uM ZnSO4, 4 mM DTT, 0-200 mM NaCl, 25 C, 10 nM DNA (mutants 25 nM DNA, 25 mM NaCl); EMSA: 50 mM Tris-HCl pH 7.4, 150 uM ZnSO4, 4 mM DTT, 10% glycerol, RT incubation, gel at 4 C; NMR complexes: 50 mM Tris pH 7.0, 150 uM ZnSO4, 4 mM DTT, 37 C. The note with it: protein: recombinant; single-chain dumbbell with 1-nt gap, two tetraloops.

Data set [13] has as its target T1, PARP-1 F1+F2 (24-kDa DBD). The data set is described as follows: NMR; 1:1 complex; FA: 50 mM Tris-HCl pH 7, 150 uM ZnSO4, 4 mM DTT, 0-200 mM NaCl, 25 C, 10 nM DNA (mutants 25 nM DNA, 25 mM NaCl); EMSA: 50 mM Tris-HCl pH 7.4, 150 uM ZnSO4, 4 mM DTT, 10% glycerol, RT incubation, gel at 4 C; NMR complexes: 50 mM Tris pH 7.0, 150 uM ZnSO4, 4 mM DTT, 37 C. The note with it: protein: recombinant; single-chain dumbbell with 1-nt gap, two tetraloops.

The target of data set [14] is T1, PARP-1 F1+F2 (24-kDa DBD). In words: EMSA; 400 nM DNA; FA: 50 mM Tris-HCl pH 7, 150 uM ZnSO4, 4 mM DTT, 0-200 mM NaCl, 25 C, 10 nM DNA (mutants 25 nM DNA, 25 mM NaCl); EMSA: 50 mM Tris-HCl pH 7.4, 150 uM ZnSO4, 4 mM DTT, 10% glycerol, RT incubation, gel at 4 C; NMR complexes: 50 mM Tris pH 7.0, 150 uM ZnSO4, 4 mM DTT, 37 C. The following applies: protein: recombinant; single-chain dumbbell, 18 bp with central nick, two tetraloops.

The mark [15] stands for this setting: single-chain dumbbell with central nick.
Setting [16] is: circular closed dumbbell, no nick.

T1 sequence (P09874 1-214): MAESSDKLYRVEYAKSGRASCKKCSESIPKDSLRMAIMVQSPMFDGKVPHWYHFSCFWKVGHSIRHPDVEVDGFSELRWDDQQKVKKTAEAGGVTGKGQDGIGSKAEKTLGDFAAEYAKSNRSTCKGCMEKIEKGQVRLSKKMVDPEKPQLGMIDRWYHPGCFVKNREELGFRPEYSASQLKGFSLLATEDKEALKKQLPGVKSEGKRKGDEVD
Sequence of PARP-1 F2 R138I (P09874 103-214 R138I): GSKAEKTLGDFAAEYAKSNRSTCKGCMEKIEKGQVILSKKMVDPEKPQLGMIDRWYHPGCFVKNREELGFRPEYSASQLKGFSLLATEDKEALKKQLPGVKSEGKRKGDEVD
Sequence of PARP-1 F2 (P09874 103-214): as the sequence (P09874 103-214 R138I) above, with I36R counted along it
Sequence of PARP-1 F2 K131I/G135D (P09874 103-214 K131I/G135D): as the sequence (P09874 103-214 R138I) above, with K29I, G33D, I36R counted along it
Sequence of PARP-1 F2 K141I/K142I (P09874 103-214 K141I/K142I): as the sequence (P09874 103-214 R138I) above, with I36R, K39I, K40I counted along it

CGGTCGATCGTAAGATCGACCGCGGTCGATCGTAAGATCGACCG (structured_DNA, 5'-phosphate) [44-nt nicked symmetric dumbbell, 5'-phosphate, 2x fluorescein-dT]: the Kd in data set [1] (setting [15]) stood at 56.1 nM; in [2] it was 52.4 nM; in data set [3] it was 46.2 nM; in [4] (setting [15]), 62.4 nM; in [5] (setting [15]), 48.6 nM; in data set [6] (setting [15]) it was 54.2 nM. In addition, the equilibrium dissociation constant (Kd) in data set [7] (setting [15]) was found to be 56.9 nM.

Consider CGGTCGATCGTAAGATCGACCGCGGTCGATCGTAAGATCGACCG (structured_DNA, circular, nick sealed by T4 DNA ligase) [ligated (circular) symmetric 44-nt dumbbell, 2x fluorescein-dT], for which the Kd was 166 nM in data set [1] (setting [16]); 480 nM in [4] (setting [16]); 117 nM in data set [5] (setting [16]); 134 nM in [6] (setting [16]); 1110 nM in data set [7] (setting [16]).

As for CGGTCGATCGTAAGATCGACCGTGCGCTGGAGCTTGCTCCAGCGC (structured_DNA, 5'-phosphate) [45-nt gapped dumbbell, 5'-phosphate], the binding result in data set [8] is “no binding”; in data set [9], “no binding”; in data set [10] it was “binds”; in [11] it was “no binding”; in data set [12] it was “binds”.

Consider CGGTCGATCGTAAGATCGACCGTGCGCTGGAGCTTGCTCCAGCGC (structured_DNA, 5'-deoxyribose (printed as 5' ribose in text)) [45-nt gapped dumbbell, 5'-ribosylated], for which, in data set [13], the binding result was “binds”.

Take CGGTCGATCGTAAGATCGACCGTGCGCTGGAGCTTGCTCCAGCGC (structured_DNA, 3'-phosphate) [45-nt gapped dumbbell, 3'-phosphate]: the binding result in data set [13] was “binds”.

CGGTCGATCGTAAGATCGACCGGCGCTGGAGCTTGCTCCAGCGC (structured_DNA, 5'-phosphate) [44-nt nicked dumbbell, 5'-phosphate]: in data set [14], the binding signal is ~2 fold weaker than gapped ligand.
